Assay results from FireProtDB (doi:10.1021/bi061295h).
“And” between values parts separate entries of the source, which are not always exact repeats. Equal values may be shown once.

B1: Alpha-lactalbumin wild type, P00711 (protein)
chain: MMSFVSLLLVGILFHATQAEQLTKCEVFRELKDLKGYGGVSLPEWVCTTFHTSGYDTQAIVQNNDSTEYGLFQINNKIWCKDDQNPHSSNICNISCDKFLDDDLTDDIMCVKKILDKVGINYWLAHKALCSEKLDQWLCEKL
B2: Fatty acid-binding protein, intestinal wild type, P02693 (protein)
chain: MAFDGTWKVDRNENYEKFMEKMGINVVKRKLGAHDNLKLTITQEGNKFTVKESSNFRNIDVVFELGVDFAYSLADGTELTGTWTMEGNKLVGKFKRVDNGKELIAVREISGNELIQTYTYEGVEAKRIFKKE

Conditions: 25 °C, reversible: Yes, whole UniProt chain shown
[1] = Bos taurus, pH 7.4, GdnHCl, CD, Tris 20 mM
[2] = Rattus norvegicus, pH 7.5, Urea, Fluorescence, Sodium phosphate 20 mM, KCl 100 mM

Protein	denaturant m value [1] [kcal/mol/M]	unfolding free energy [1] [kcal/mol]	denaturant m value (Bos taurus, pH 7.4, GdnHCl, SUPREX, Sodium phosphate 20 mM) [kcal/mol/M]	denaturant m value [2] [kcal/mol/M]	unfolding free energy [2] [kcal/mol]	denaturant m value (Rattus norvegicus, pH 7.5, Urea, SUPREX, Sodium phosphate 20 mM, KCl 100 mM)
B1	1.4	3	1.6			
B2				1.7	9.2	1 kcal/mol/M and 2.7 kcal/mol/M and 0.9 kcal/mol/M
